Eight molecules from article PMC5748837, “Biochemical characterization of INTS3 and C9ORF80, two subunits of hNABP1/2 heterotrimeric complex in nucleic acid binding” can be followed below.

Common to all, as to assay: EMSA; EMSA: 20 mM HEPES pH 7.3, 100 mM KCl, 1 mM MgCl2, 1 mg/ml BSA, 1 mM DTT, 6% glycerol, 0.5 nM 32P substrate, 30 min on ice; 5% native PAGE, 1x TBE, 4°C
In general terms: Mobility shift assays separate free from complexed probe on a gel.

For data set [1], the target named is INTS3FL (human, UniProt Q68E01-2 1-1042). Conditions: protein: recombinant, tags: GST cleaved (PreScission).
INTS3FL, sequence (Q68E01 other isoform, or with tags, fused parts or gaps): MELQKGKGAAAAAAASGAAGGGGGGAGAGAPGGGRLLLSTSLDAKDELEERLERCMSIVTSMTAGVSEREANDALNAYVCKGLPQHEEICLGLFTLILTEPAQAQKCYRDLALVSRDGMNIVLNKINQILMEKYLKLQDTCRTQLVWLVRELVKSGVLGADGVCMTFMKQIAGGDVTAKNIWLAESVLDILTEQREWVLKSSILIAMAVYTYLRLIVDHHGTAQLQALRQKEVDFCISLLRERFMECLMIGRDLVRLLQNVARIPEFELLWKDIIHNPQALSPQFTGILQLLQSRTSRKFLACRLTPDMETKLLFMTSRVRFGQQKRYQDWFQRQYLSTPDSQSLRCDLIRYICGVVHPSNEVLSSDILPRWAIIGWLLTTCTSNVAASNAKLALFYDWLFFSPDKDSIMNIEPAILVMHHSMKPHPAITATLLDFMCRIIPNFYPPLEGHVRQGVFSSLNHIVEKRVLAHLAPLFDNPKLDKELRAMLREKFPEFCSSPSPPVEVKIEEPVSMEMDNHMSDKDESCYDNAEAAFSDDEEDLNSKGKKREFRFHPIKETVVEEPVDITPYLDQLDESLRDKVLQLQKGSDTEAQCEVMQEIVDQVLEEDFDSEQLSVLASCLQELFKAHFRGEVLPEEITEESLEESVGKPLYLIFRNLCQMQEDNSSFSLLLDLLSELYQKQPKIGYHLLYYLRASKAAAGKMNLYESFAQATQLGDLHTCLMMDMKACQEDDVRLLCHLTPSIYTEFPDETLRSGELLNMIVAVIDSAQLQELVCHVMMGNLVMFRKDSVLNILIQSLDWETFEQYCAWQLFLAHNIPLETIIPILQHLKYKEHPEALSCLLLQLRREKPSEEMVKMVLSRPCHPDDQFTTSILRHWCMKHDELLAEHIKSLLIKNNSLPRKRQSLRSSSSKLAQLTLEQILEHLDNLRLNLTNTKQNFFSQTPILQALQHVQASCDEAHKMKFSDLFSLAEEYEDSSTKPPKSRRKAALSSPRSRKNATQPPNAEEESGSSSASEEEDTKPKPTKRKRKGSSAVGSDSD
Data set [2] has as its target T1, C9ORF80 (human, UniProt Q9NRY2 1-104).
T1 sequence: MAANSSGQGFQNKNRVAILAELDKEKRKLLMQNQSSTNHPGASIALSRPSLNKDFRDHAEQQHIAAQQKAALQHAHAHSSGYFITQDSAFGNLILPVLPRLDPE
As to conditions: protein: recombinant, tags: His (pET28a).

Data set [3] concerns the target hNABP1 (hSSB2) (human, UniProt Q96AH0 1-204). As to conditions: protein: recombinant; tags: His; label: 5'-32P.
Data set [4] addresses INTS3FL in co-expressed complex;hNABP1 (hSSB2);C9ORF80 (human;human;human, UniProt Q68E01-2;Q96AH0;Q9NRY2 1-1042;1-204;1-104, ||). As to conditions: protein: recombinant;recombinant;recombinant; tags: GST (pGEX-6P-1); copies: 1;1;1; label: 5'-32P.
Data set [5] deals with INTS3C (human, UniProt Q68E01-2 514-1042). As to conditions: protein: recombinant, tags: His (pET28a), label: 5'-32P.
INTS3C, sequence (Q68E01 515-1043): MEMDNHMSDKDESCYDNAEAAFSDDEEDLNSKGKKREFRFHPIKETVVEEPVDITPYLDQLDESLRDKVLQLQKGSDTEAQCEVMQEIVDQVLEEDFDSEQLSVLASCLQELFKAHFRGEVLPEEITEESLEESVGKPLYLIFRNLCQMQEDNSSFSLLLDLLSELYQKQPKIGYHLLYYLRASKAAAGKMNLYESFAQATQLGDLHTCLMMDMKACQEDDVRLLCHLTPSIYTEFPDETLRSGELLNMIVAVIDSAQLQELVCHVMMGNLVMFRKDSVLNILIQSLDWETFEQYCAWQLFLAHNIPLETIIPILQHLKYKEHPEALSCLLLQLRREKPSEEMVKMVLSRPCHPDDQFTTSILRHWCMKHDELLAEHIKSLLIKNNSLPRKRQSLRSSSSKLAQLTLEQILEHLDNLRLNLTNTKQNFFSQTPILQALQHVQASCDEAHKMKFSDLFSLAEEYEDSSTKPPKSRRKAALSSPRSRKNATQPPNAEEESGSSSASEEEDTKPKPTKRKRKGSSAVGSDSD
Data set [6] addresses INTS3FL in co-expressed complex;hNABP2 (hSSB1);C9ORF80 (human;human;human, UniProt Q68E01-2;Q9BQ15;Q9NRY2 1-1042;1-211;1-104, ||). As to conditions: protein: recombinant;recombinant;recombinant; tags: GST (pGEX-6P-1); copies: 1;1;1; label: 5'-32P.
The target of data set [7] is hNABP2 (hSSB1) (human, UniProt Q9BQ15 1-211). As to conditions: protein: recombinant; tags: His; label: 5'-32P.
hNABP2 (hSSB1), sequence (Q9BQ15 whole entry): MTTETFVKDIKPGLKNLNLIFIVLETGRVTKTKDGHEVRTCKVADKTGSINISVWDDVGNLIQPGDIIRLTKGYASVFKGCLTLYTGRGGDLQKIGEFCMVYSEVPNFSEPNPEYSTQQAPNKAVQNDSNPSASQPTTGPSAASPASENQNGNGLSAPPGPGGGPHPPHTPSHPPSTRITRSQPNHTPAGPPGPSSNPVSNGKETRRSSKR
Where [8] appears, read: label: 5'-32P on one strand, blunt.

hNABP1 (hSSB2), sequence (Q96AH0 whole entry): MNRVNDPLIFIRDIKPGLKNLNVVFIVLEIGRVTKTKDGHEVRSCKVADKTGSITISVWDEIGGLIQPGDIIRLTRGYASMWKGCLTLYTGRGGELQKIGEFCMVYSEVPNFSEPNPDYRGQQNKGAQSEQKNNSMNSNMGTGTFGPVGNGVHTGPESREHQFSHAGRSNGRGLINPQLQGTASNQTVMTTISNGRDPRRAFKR
INTS3FL in co-expressed complex;hNABP1 (hSSB2);C9ORF80, sequence (Q68E01 other isoform, or with tags, fused parts or gaps ||, chain 1 of 2): as the sequence (Q68E01 other isoform, or with tags, fused parts or gaps) above
INTS3FL in co-expressed complex;hNABP1 (hSSB2);C9ORF80, sequence (Q96AH0 whole entry, chain 2 of 2): as the sequence (Q96AH0 whole entry) above
INTS3FL in co-expressed complex;hNABP2 (hSSB1);C9ORF80, sequence (Q68E01 other isoform, or with tags, fused parts or gaps ||, chain 1 of 2): as the sequence (Q68E01 other isoform, or with tags, fused parts or gaps) above
INTS3FL in co-expressed complex;hNABP2 (hSSB1);C9ORF80, sequence (Q9BQ15 whole entry, chain 2 of 2): as the sequence (Q9BQ15 whole entry) above

With GAGCTACCAGCTACCCCGTATGTCAGAGAG (ssDNA) [DNA 30-mer (random)], the Kd in data set [1] (label: 5'-32P) worked out at 13 ± 0.8 µM.

Turning to TTTTTTTTTTTTTTTTTTTTTTTTTTTTTT (ssDNA) [dT30], the Kd in data set [2] (label: 5'-32P) is 13.2 ± 1.2 µM; in data set [3], 0.15 ± 0.04 µM; in data set [4], 0.6 ± 0.09 µM; in data set [5], 7.2 ± 1.2 µM.

B1: dT60 (ssDNA)
DNA: TTTTTTTTTTTTTTTTTTTTTTTTTTTTTTTTTTTTTTTTTTTTTTTTTTTTTTTTTTTT
For B1, the binding result in data set [1] (label: 5'-32P) was “binds”.

B2: dT90 (ssDNA)
DNA: TTTTTTTTTTTTTTTTTTTTTTTTTTTTTTTTTTTTTTTTTTTTTTTTTTTTTTTTTTTTTTTTTTTTTTTTTTTTTTTTTTTTTTTTTT
B2: the binding result in data set [2] (label: 5'-32P) and in data set [1] (label: 5'-32P) was “binds” in each case.

B3: DNA 60-mer (random) (ssDNA)
DNA: ACGCAGTTGAGTATTCTACAGAGTTGGCGTGAGCTACCAGCTACCCCGTATGTCAGAGAG
B3: the dissociation constant Kd in data set [1] (label: 5'-32P) is 6.4 ± 0.9 µM.

Regarding UUUUUUUUUUUUUUUUUUUUUUUUUUUUUU (ssRNA) [rU30], the dissociation constant Kd in data set [6] was 0.5 ± 0.07 µM; in data set [1] (label: 5'-32P) it was 5.6 ± 1.2 µM; in data set [5] (chain copies: 2), 1.2 ± 0.8 µM; in data set [7], 0.06 ± 0.02 µM.

B4: DNA:RNA hybrid 30-mer (DNA:RNA)
DNA: GAGCTACCAGCTACCCCGTATGTCAGAGAG
RNA: CUCUCUGACAUACGGGGUAGCUGGUAGCUC
Consider B4, for which the binding result in data set [2] (setting [8]) and in data set [1] (setting [8]) was “no binding” each time.

B5: dsRNA 30-mer (dsRNA)
RNA 1: GAGCUACCAGCUACCCCGUAUGUCAGAGAG
RNA 2: B4 RNA
Turning to B5, the binding result in data set [2] (setting [8]) and in data set [1] (setting [8]) was “no binding” in each case.

By Kd is commonly meant the constant that tells how readily two partners part at equilibrium.
